Source: patent US20200299370A1 (UNIVERSITY OF FLORIDA RESEARCH FOUNDATION, published 2020)
Residue numbers refer to the chain shown, from its start. Each block holds one binder with its values, some of them ahead of it.

Legend:
[1] = target: T1, phosphopeptide DRSGYSpSPGpSPGpTPGSRSR (p193-211) (human, phosphoserine at residues 7 and 10 and phosphothreonine at 13 (S199, S202, T205 of 2N/4R tau); C residue added at the carboxy-terminus); assay: ELISA, hybridoma medium on plates coated with the unconjugated immunising peptide
T1 construct: Unconjugated synthetic peptide coated on ELISA plates; also called tau peptide p193-211
T1 peptide: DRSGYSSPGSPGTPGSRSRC

[2] = target: T2, WT 0N/3R human tau phosphorylated in vitro with p42 MAPK or GSK3β (human, UniProt P10636 2-758, phosphorylated in vitro with p42 MAPK or with GSK3β; T205 (2N/4R numbering) phosphorylated by both, other sites not stated); assay: immunoblot, recombinant 0N/3R tau
T2 construct: recombinant, E. coli BL21; also called phosphorylated tau
Description: (§1) WT, S199A, 5202A and T205A 0N/3R tau (mutants numbered according to 2N/4R human tau) were incubated with p42 MAPK or GSK3β or without any kinase as described in “Material and Methods”. […] The mobilities of molecular mass markers are shown on the left.
(§2) Tau proteins (0.2 mg/ml) were phosphorylated with either glycogen synthase kinase 3β (GSK3β; 2.5 U/μl; New England Biolabs, Ipswich, Mass.) or p42 mitogen-activated protein kinase (MAPK; 0.5 U/μl; New England Biolabs, Ipswich, Mass.) in 50 mM Tris, pH 7.5, 10 mM MgCl₂, 0.1 mM EDTA, 2 mM DTT, 0.1% Brij 35, ATP 200 μM for 2 hours at 30° C. followed by heat inactivation at 95° C. for 5 minutes. Samples were diluted in SDS-sample buffer and 100 ng of each tau protein was loaded on a separate lane on SDS-polyacrylamide gels for immunoblot analysis.
(§3) To determine the specificity of these monoclonal antibodies, WT, S199A, 5202A and T205A 0N/3R human tau (mutations numbered according to the sequence of 2N/4R human tau) were phosphorylated with p42 MAPK or GSK3β and immunoblotting analysis was performed (FIG. 3).

[3] = target: T3, WT 0N/3R human tau, non-phosphorylated (incubated without any kinase) (human, UniProt P10636 2-758); assay: immunoblot, recombinant 0N/3R tau
T3 construct: Recombinant, E. coli BL21; also called non-phosphorylated tau
Description: as §1, §2, §3

[4] = target: T4, full-length S404A 2N/4R human tau phosphorylated in vitro with GSK3β (human, UniProt P10636 2-758, phosphorylated in vitro with GSK3β; sites not stated); assay: immunoblot, recombinant tau phosphorylated in vitro
T4 construct: Recombinant, E. coli BL21; also called S404A tau; 5404A
Description: as §2
(§4) To determine the specificity of these monoclonal antibodies, full-length WT, S396A and 5404A 2N/4R human tau were in vitro phosphorylated with known tau kinases (p42 MAPK or GSK3β) and used these tau proteins for immunoblotting analysis (FIG. 1).

[5] = target: T5, full-length S396A 2N/4R human tau phosphorylated in vitro with GSK3β (human, UniProt P10636 2-758, phosphorylated in vitro with GSK3β; sites not stated); assay: as above
T5 construct: Recombinant, E. coli BL21; also called S396A tau
Description: as §2, §4

[6] = target: T6, T205A 0N/3R human tau phosphorylated in vitro with p42 MAPK or GSK3β (human, UniProt P10636 2-758, phosphorylated in vitro with p42 MAPK or with GSK3β; sites not stated); assay: immunoblot, recombinant 0N/3R tau phosphorylated in vitro
T6 construct: Two preparations, one for each kinase; also called phosphorylated T205A tau
Description: as §1, §2, §3

T6 sequence (P10636 other isoform, or with tags, fused parts or gaps T205A T205A limits assumed): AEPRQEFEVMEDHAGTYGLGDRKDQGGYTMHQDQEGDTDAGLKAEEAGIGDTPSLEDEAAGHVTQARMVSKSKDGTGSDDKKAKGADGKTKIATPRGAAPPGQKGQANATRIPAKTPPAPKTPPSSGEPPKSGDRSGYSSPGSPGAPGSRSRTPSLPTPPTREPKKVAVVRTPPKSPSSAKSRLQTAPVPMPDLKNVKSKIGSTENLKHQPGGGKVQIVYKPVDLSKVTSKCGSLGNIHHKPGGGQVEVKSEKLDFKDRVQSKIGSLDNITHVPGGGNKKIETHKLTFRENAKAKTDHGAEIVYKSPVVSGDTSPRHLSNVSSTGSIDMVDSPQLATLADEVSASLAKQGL
T5 sequence (P10636 other isoform, or with tags, fused parts or gaps S396A S396A limits assumed): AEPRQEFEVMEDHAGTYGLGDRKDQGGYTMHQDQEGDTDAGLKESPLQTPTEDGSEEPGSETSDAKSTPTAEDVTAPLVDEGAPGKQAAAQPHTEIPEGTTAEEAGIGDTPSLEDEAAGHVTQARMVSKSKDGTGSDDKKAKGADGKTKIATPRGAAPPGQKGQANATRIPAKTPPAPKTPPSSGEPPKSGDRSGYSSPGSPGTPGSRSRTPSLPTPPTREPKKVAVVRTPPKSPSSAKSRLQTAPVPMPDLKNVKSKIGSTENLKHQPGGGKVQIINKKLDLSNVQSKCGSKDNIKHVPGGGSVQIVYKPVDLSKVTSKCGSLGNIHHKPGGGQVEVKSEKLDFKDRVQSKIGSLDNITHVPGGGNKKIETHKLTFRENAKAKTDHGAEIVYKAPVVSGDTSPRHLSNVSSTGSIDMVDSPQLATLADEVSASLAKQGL
T4 sequence (P10636 other isoform, or with tags, fused parts or gaps S404A S404A limits assumed): as the sequence (P10636 other isoform, or with tags, fused parts or gaps S396A S396A limits assumed) above, with A395S, S403A counted along it
T3 sequence (P10636 other isoform, or with tags, fused parts or gaps limits assumed): as the sequence (P10636 other isoform, or with tags, fused parts or gaps T205A T205A limits assumed) above, with A146T counted along it
T2 sequence (P10636 other isoform, or with tags, fused parts or gaps limits assumed): as the sequence (P10636 other isoform, or with tags, fused parts or gaps T205A T205A limits assumed) above, with A146T counted along it

binding result [1]: binds
binding result [2]: binds
binding result [3]: binds
B1: 2D1 (antibody, V domains shown)
VH: EVKLVESGGGLVQPGGSLRLSCATSGFTFTDFSMNWVRQPPGKALEWLGCVRDRAEGYTTEYSASVQGRFTISRDNSQSILYLQMNTLRPEDSATYYCARERAFAYWGQGTLVTVSA
VL: DIVMSQSPSSLAVSAGEKVTMSCKSSQSLLYSRNQKNYLAWYQQRPGQSPKLLIYWASSRESGVSDRFTGSGSGTDFTLTISSVKADDLAVYYCQQYYKSPLTFGAGTKLELKR
notes: also called clone 2D1

binding result [4]: no binding
binding result [5]: no binding
B2: PHF15 (antibody, V domains shown)
VH: EVQLVESGGGSVKPGGSLKLSCAASGFTFSSYALSWVRQTPEKRLEWVASITSGGSYTYFPDSVKGRFTISRDNAKNTLYLQMSSLRSEDTAMYYCTRPGNYDGAWCAYWGQGTLVTVSS
VL: DILLTQSPAILSVSPGERDSFSCRASQNIGTSIHWYQQRTNGSPRLLIKYASESISGIPSRFSGSGSGTDFTLSVNSVESEDVADYYCQQTKTWPTTFGAGTKLDLK

binding result [4]: no binding
binding result [5]: no binding
B3: PHF2 (antibody, V domains shown)
VH: B2 VH with L34M, S53R, A75T, N77D, P99Q, A108D, S120A
VL: DILLTQSPAILSVSPGERVSFSCRASQNIGTSIHWYQQRTNGSPRLLIKYTSESISGIPSRFGGSGSGTDFTLSVNGVESEDVADYYCQQTKTWPTTFGAGTKLELKR

binding result [6]: no binding
B4: 6G12 (antibody, V domains shown)
VH: EVNLEESGGGLVQPGGSMKLSCVASGFTFSDYWMNWVRQSPEKGLEWVAEIRLKSDNFATHYAESVKGRFTISRDDSKSSVYLQTNNLRAEDTGIYYCTLMRGDYGAEFAYWGQGTLAIVSA
VL: DIVMSQSPSSLAVSVGEKVTLTCKSSRSLLYRGNQENFLAWYQQKPGQSPKLLIYWASTRESGVPDRFTGSGSGTDFTLTINSVKAEDLAVYYCQQYYTYPYTFGGGTKLEIKR

binding result [6]: no binding
B5: 10G12 (antibody, V domains shown)
VH: EVKLEESGGGLVQPGGSMKLSCVASGFTFSNYWMNWVRQSPETGLEWVAEIRLKSYNYATHYAESVTGRFTISRDDSKNRVYLQMNNLGPDDTGIYYCTTGGAYHPFDYWGQGTTLTVSS
VL: B4 VL with L21M, R27Q, G33N, E36K, F38Y, N82S
notes: also called 10G2

binding result [6]: no binding
B6: 7F2 (antibody, V domains shown)
VH: B5 VH with E1Q, K3Q, E5Q, E6Q, G9A, G10E
VL: EIVLTQSIPSLTVSAGERVTINCKSNQNLLWSGNQRYCLVWHQWKPGQTPTPLITWTSDRYSGVPDRFIGGGSVTDFTLTISSVQAEDVALYFCQHHLHIPPWTFGGGTKLEIKR
notes: also called clone 7F2
